Earlier results, collected in publication PMC8031367.

Target: Cys403 (UniProt position 403, RPVIHCRAGVG)
Test: chemical modification

## YopH (Yersinia protein tyrosine phosphatase) (Yersinia pestis (as stated for YopH in this article; the title of the cited source, ref 59, says only 'Yersinia'))
  pKa: 4.67
